Data from the domain aggregation screens of Martell et al. (2025).

Experiment: soluble fraction after stress (log2 fold change); higher = more stays soluble; pooled small domains, quantitative proteomics
Conditions: stress: 75 degC
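Note: 20 min heating vs room temperature control held 20 min.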

Row | Sequence | soluble fraction (log2)
1 | HMVNSIQIHKKLRLDKRAGSDNWYARLTLPNGKRLVKTTKTEDIETAKEVALRLYYEVDARIQNKLPAT | -1.72
2 | HMVPADVQHLRDIVDTMTEKQQLVYKLHVLEGYTFTEIAKLMGTSIPNVKKHYDKAILFIKNNF | -1.79
3 | HMVPEEEATKISVQNVGASDYNFTVKGVQANDPTLTLVRGKTYEFDVTSLGHPFWIKTQKVTGSSSQY | 0.354
4 | HMVPLSPRFFDIFRKRKDLTRQNVDVYFRDHPTEITAFERYIKGLVSQSYIPAERADALLLVASQYKAK | -1.58
5 | HMVPSTAVIFTELVSMRSEPATKSPVTHQLTKGTAITINEEKDGWYQVTDQTGNSGWIVKWAVKPTYFTNP | -0.967
6 | HMVPTYEAYVGKEGLVVGTLRPAGTAEFDGERLDVVSEGEYLEAGTRVQIVRTEGRRIVVRKIN | -0.275
7 | HMVPVVGTTIPHEFIGKFGSARVMLKPAVEGSGVIAGGSARAVLELAGYKDIKTKVLGTNNPRNVVYATMN | 0.238
8 | HMVQDDDPNSVAKFIDQVIESNPEQVEQYRSGKEKVFNFFLGQTMRLSKGKANPDLVSELLKEKLS | 0.0209
9 | HMVQIQDIAFSEFLNELEKGNILDVNIKGDLINGNMLDGKKFKTYAPYDPSLVEKLSKQNVTINVEPVN | 0.109
10 | HMVQMKIRAYELEPNDFFIKQNMTYRVMRIQNGMIYAKHLLNSTPITFGAKSMEFVLWTGKYS | -2.21
11 | HMVQQTEEDVIRDMYVEGKIFTIGEEVTDTYTGVTGKIIRRGTNYVTFMSEDGETYKKWLYEIELA | -0.61
12 | HMVRDGDTFVVPKMDRFARNVEDTLHLVRELTERGVIFQMGHTVYDPHDPWSKLFLTFLAAIAEA | 0.0785
13 | HMVREVGYNAFLAMLDSGAVKEVARDESEGQITFLATDEKGKERVYKTGIWPDDTLTERLNTAGVEFA | 0.351
14 | HMVREVSYDQFLHFVEAKQVGMVYQDGESLMFTLKEDVEKEWGVTAYKTGLWPDANLTDRLLDAGVVFS | -2.32
15 | HMVRGNLAEELLKLREEEGISFQEAGARSGIARSTISQVVNQGLRLKPNQEESLWRVIEEVRGVKER | 0.0321
16 | HMVRSEDLIGLQGRITLATDVETRGFVELSVKGSLLRRPALSLKGPLAKNTAVVVTASNDHTLEVEAL | -0.985
17 | HMVRSKLEIVPVPEDAVVKIAGLKRLTYQAYQNEDVPYMVYKNGYEAQSGTVFMDTDKTLTVTLEESP | -0.0399
18 | HMVSAMLLHKKEILNLLAEEPEALHFASLLRAFGGRHIKNELKQIVDDLVRSGEILRLRGNRYTLPGADN | -1.5
19 | HMVSATKAFVNGGNIVVSSPKATRVAVYNVAGQKVAEQAFAGKATIKASDFAKGIYVLKFNDNTVLKLT | -0.955
20 | HMVSDAELTSQATTAITAYPGTSVEVKEGQAHLSGTFATEADKQAAIDALKKIQDVKDVHDMATV | 0.152
21 | HMVSDSAELSAFVADVIKENAQAVADYKGGKTNVFGWLMGQIIKKSGGKATPAAAAALLKAELEK | -0.0308
22 | HMVSKQVTVNGIQYYQYTVQKSEGFYAISTKFGVTQDDIILANPSTKEGLRVGQEILIPIKT | -2.62
23 | HMVSLLDWAYKQVRRMLFSGDLPQGQKIVVAQLANQLSISPTPVKEALNRLAVEGLLEAVPRRGFQVR | -0.548
24 | HMVSQELIMLGNRIREYRKERGFSQEILAEKSGVSTNTISRIEGGQMAMSVGILQRIVKALGVDANVMLG | -2.32
25 | HMVSQKPKERELWFREQLELAGLRLDPHAISAINETLGNDTGRFPGIIDTLLSTYGAGKKLSYDDVVMFL | -0.638
26 | HMVSRAFEEETVKRAESGNQEAALFALELAIREIEHSYEKSKIIDYFVSKVRLFLDNGVSLERALGIH | 0.196

Row | Sequence | soluble fraction (log2)
27 | HMVSRKIENPYWANKEKQHIIAEFFYPDTNKRVTASIMNDGSNRDYEEILRGYSIEQIDANTNRRLEER | 0.566
28 | HMVSSEGLASGIERMLVEFGLETDKGRRFAMWSLLYMLGSAPDLDVAFKDPRDREAARTFMDLLDQANA | -1.57
29 | HMVSSVAAISQMIDEKDRYTSEHSHRVAEYARLIGAHMGFAGEELDSLYRSALLHDIGKIAVPDAILNK | -0.627
30 | HMVSTDPVHLFNLGTANRRAGRASEAITSYRKFMEAAPQHPQVPEARAYIHDMEVLLQERQKSEQAASQLS | 0.143
31 | HMVSTSVTVTGDLNVRADSRADSDLVGALIPGQTVTRLAVLDNGWSKIRFDDGAGTVVEGYVLSEYLQADG | 0.335
32 | HMVSVEINTVERDETFRKMFTSGWKPENRIQALAVEQAKKNGLGRMSEVAGLASFRGIWKQATEQVALEA | -0.213
33 | HMVSVLDHIVGIGAKRRQSLWNHFGTIDKIKAASIDELLKAPGMNRPSAEAVYYFFEAQRQLRGK | -1.22
34 | HMVTEKNALTIEIEDLTKRFGNQRESLLPILQEVQLKHGHISDFAQQEIARLLDIHPVEVYGVVTFFSFLS | -3
35 | HMVTGSIYERKGIYYAIVSYYVDGRRKQKSVSTGLSVKGNKRRALEFLENLKRTYETKESMENMD | -3.79
36 | HMVTIEEMMDRLLTRVQRAVNMSFSEFSGEAKEKVEVIVSFLALLELVKQGAVDVLQHENFSDIRIENT | -0.661
37 | HMVTKQKKLVLTIIERSHGHLSAEEIFFRAREEMPNIALGTVYRNLNSLTEEGIVRRITLPGTSDRFDT | -2.91
38 | HMVTKTTYAYERLKREIMDGTLGQGEKLVVNAISQRYQVSPMPIREALLKLEQEGLVQSAPHRGAWVHK | -0.776
39 | HMVTNELFGTRLRAFRKEKGLTIEQLAERVGLSPNYLGDIERGKKLPSMATFIRLVNELDISADEL | -1.52
40 | HMVTQVDYGTFLTRIDEGKVKSVEIQDNQIAFTAIDEAGKENIYVTGKVNDPELVDRLLAADIEDFSQVIP | 0.0911
41 | HMVTTTEAAKMLLVNAGHDVIKDGLTGASWASNTMKLADADGLLASVATKPNDALPRQYAAQMIYN | 0.103
42 | HMVVANTAIKSELQNIVANENKQAPLSDQKIVDQLKQAGFDISRRTVVKYRDALGIPTSRNRKR | -0.28
43 | HMVVEGMQFDRGYLSQYMVTDNEKMVADLENPYILITDKKISNIQEILPLLESILQSSRPLLIIADD | -0.0369
44 | HMVVGYRYVTNVANAVNFRQKPSASSTIITTIPYGTRIGYVEDANSEYARVKYDNMYGYVAKFYLSNYSPP | -3.68
45 | HMVVLNQEQIKFIDHYLQVSKVRYVDVRSELTDHIATAVELKMQDEALDFYEAFKAFIAVNKSQLLQRN | -1.06
46 | HMVVNERIKKLRRSLDLTQQEFADRIGVKRNTIANYEIGRNEPIDSVLELIVREFGVSKQWLLDGTGEMF | -1.43
47 | HMVVPRSFKYEVLAHGGWAGNAQRYQTKEEALHAGLALSRRWTAVEDYRAVPSDDLPNQPAL | -0.231
48 | HMVVPSNPDELKGSFSLAEVASGYGLEVAAILEKAGWPADTDPNVKMRDAANAIGRDSTDIRNAVKALLKS | 0.156
49 | HMVVVPPPATPKPGDVTGDNKINGYDLSILLSNWKRPGATLAQGDLNKDGVVNGLDLSIMLLNWG | 0.274
50 | HMVVYDAELLLNINPGMSYEEVKEMLGDPGMIIAGNDAENSVYRWSTGGISFMGRFENGALIRKSIISP | -0.862
51 | HMVWNVEQIKRAVDQLPDGYRVVFTLYLFEGYDHREIADILGISEGGSKSQFNRAKSKLKEILTAMS | -2.19
52 | HMVWTAGEVVERIRERVGHPATIRELMQVLTIPPEDRHRFRRRIMQLVEAGELIRIRGNRYGLAD | -2.59

Row | Sequence | soluble fraction (log2)
53 | HMVYNGYYAKSFNGYVVILNGDEKTVYEYTQIPIHLLPEDIRSSVMSGYYLENETDLYNFLENYS | -3.24
54 | HMWAVDFVLLDKDDQRIGNAVAYRDDRTKGMDEEVYRTVPEEELYASTGIQKQIFNSIYQLMAWKK | -0.0106
55 | HMWDRFGELDSAEEINRIAAAELREGDIDALKVLAEENGLDKDDVEDYIDRLIDELTTPELAAIGKLDV | 0.275
56 | HMWKQISSEAELLPAVRSVIQANPGEAEKLRNGEMAPLEFLTGLVMKKTNGMAVPQIVKTLIKKELKI | 0.0414
57 | HMWKSEAGKKIIESLAQKYNKSNAQIILRWHIQMGYIVIPGARSENHIKENINIFDFKLTNEEINNILKLN | -0.242
58 | HMWMTAQDFRNSSLPWSATTSYNEGQSVRVVDGSNTYYYIAIVKTQPGQSPTTHPTSWREVDA | -1.16
59 | HMWNLPDPVVRPEGNVTVYENFKNTVEVLNREADLVLKFLQNEFGTSANIDDTGRARLTGSFSTDRVSSVI | -0.328
60 | HMWSNTAVIDRIRQLHEEGQPISSQSVQVNHKSLYMAAIKRFRGWKRAVEAAGIDYRQIRLR | -2.29
61 | HMWWTPIILRDALFGVQRFEDFQKNLDVSRATLSSRLTRLVDEGLMEKVEYQQHPVRHEYVLTEKGR | -0.234
62 | HMYAGTWTTESGQWKYRQDDGTYAKGWLQDTDGRWYYFDANGRMLSNTATPDGYQVGEDGAWVNH | -0.338
63 | HMYAMTAEDWIVSGNRKYINDDLQGAIADYTKAIEIDPNYAAIYLVRGKAKYELKNYQGAIEDYTKAIE | -1.29
64 | HMYAPKIETIQVPQDKIREVIGTGGKVIREIVETTGAKIDIGDTGLIKVASSDGEAIRAALDWINSIVAE | 0.278
65 | HMYATQLLQLEEMGFFDRAENIRALRATNGNVNAAVERL | -0.202
66 | HMYDASELNKALEEAKKLDLNNYTEESSEALKNAISKAEEALLSKDKETINSALEELNKAMDSL | 0.512
67 | HMYDEAAIRKAVMTFVTDNRDERLDLAKISAVLTSKFGNINFDELGYKRFSSFIDSFPELRRNNTFVSLR | -0.883
68 | HMYDFGVILQKLRKEKGFTQEQLARLIHKESSIISRYEKGLQNPTFETVKEFAAIFNVSMDYLAG | -1.49
69 | HMYEGNEFSSTGMFREDILAITAVHPMREDAVTELLARSNESEETLEMMIDEELLRRVAYGNHNYYMRRFR | -0.611
70 | HMYEHLKALRESLGMTQAEFGESVGVAKSTYNNYEIGARDPKSDFWIAVAQRYGVTIDYLMGFSDDPKKT | -1.76
71 | HMYELSDTEWKIIEQVGLGASNKEIAASLHFSEGTIRNYLSVILDKLSLRDRTQLAILYVKMN | -1.11
72 | HMYEPPTEDEKRVLSLLATRESIVRSDVDRLLGVSQSTANRILKQMIEKYLISQEGTGKNTKYIK | -0.263
73 | HMYESAMSDLHARIMSSDDPHGEIYKMLTQSGPEAKYIQDMYNETSIDRGLHPDDDFEDIIDAMVAELDD | -0.68
74 | HMYEVVPNMKGLSYEQAATALRTAGLEPELSDSIYDDKTRPGTVLEQSPRANTKVKPGRTVYLTVNAF | 0.0171
75 | HMYFFNTFTQRLFDNPELTQEEAIRQMYPGISGVQTAEKLQENFMADVYIQAAIRQEIVVQLIR | -0.485
76 | HMYGSLGEYELAAVQWIYGKGKITTRELSSLIGKGLTLSSKTLRGLAAKGILEWHGNSKNDPSQFYSLP | -2.42
77 | HMYHADLIGLEARSTAGDKLGEVNAVYNFGAGDLIEIKMTDGNLEMLPFTRQYVPTVSIKDGFIIVQM | -1.32
